T1: His-DLL3胞外区蛋白 (Human DLL3 Protein, His Tag, ACRO DL3-H52H4) (human, UniProt Q9NYJ7 27-492)
T1 construct: extracellular domain; Bought protein; also called DLL3-His; DLL3抗原; not shown: His tag
T1 sequence (looked up): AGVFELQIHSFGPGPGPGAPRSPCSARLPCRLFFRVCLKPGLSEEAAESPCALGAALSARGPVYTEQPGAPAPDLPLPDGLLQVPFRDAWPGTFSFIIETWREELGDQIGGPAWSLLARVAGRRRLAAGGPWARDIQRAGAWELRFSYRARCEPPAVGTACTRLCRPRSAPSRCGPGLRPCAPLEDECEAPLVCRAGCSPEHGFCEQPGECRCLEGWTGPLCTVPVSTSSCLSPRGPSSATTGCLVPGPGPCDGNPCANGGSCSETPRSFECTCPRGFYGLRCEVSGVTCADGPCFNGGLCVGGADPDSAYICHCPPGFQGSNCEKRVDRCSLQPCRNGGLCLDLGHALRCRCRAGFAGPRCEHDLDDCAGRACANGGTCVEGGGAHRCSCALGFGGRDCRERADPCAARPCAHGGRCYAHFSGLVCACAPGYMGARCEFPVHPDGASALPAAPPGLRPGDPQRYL

T2: 小细胞肺癌细胞系SHP-77上表达的DLL3抗原 (UniProt Q9NYJ7 27-618)
T2 construct: whole, on cells; Endogenous DLL3 on SHP-77 cells; also called DLL3 on SHP-77 cells
T2 sequence (looked up): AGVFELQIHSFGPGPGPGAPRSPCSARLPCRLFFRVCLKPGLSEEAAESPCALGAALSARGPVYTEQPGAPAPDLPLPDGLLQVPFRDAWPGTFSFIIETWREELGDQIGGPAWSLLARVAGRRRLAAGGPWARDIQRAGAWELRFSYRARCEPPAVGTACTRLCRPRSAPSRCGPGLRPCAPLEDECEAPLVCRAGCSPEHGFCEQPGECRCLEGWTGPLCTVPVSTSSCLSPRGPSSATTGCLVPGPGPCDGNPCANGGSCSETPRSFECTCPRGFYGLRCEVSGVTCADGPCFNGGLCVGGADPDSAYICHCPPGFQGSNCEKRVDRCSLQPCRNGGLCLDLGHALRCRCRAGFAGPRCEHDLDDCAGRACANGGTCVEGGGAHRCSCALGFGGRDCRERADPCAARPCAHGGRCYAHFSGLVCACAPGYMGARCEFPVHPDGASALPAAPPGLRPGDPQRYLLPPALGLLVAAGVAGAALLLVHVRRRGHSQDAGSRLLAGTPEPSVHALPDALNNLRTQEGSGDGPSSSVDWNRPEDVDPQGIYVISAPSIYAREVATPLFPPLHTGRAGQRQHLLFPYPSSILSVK


How the values were obtained:
[1] = molecular target: T1, His-DLL3胞外区蛋白 (Human DLL3 Protein, His …); assay: phage ELISA, scFv shown on M13 phage, coated DLL3-His 1 ug/ml, anti-M13-HRP
[2] = molecular target: T3, BSA(牛血清白蛋白) (bovine, UniProt P02769 25-607); assay: ELISA, periplasmic extract with soluble scFv on coated BSA, anti-c-myc-HRP detection
[3] = molecular target: T3, BSA(牛血清白蛋白); assay: ELISA, 293T culture supernatant on coated BSA, anti-human IgG-Fc-HRP detection
[4] = molecular target: T2, 小细胞肺癌细胞系SHP-77上表达的DLL3抗原; assay: flow cytometry on SHP-77 cells, PE anti-human Fc detection
[5] = molecular target: T1, His-DLL3胞外区蛋白 (Human DLL3 Protein, His …); assay: ELISA, 293T culture supernatant, coated DLL3-His 1 ug/ml, anti-human IgG-Fc-HRP

T3 sequence (P02769 25-607 limits assumed): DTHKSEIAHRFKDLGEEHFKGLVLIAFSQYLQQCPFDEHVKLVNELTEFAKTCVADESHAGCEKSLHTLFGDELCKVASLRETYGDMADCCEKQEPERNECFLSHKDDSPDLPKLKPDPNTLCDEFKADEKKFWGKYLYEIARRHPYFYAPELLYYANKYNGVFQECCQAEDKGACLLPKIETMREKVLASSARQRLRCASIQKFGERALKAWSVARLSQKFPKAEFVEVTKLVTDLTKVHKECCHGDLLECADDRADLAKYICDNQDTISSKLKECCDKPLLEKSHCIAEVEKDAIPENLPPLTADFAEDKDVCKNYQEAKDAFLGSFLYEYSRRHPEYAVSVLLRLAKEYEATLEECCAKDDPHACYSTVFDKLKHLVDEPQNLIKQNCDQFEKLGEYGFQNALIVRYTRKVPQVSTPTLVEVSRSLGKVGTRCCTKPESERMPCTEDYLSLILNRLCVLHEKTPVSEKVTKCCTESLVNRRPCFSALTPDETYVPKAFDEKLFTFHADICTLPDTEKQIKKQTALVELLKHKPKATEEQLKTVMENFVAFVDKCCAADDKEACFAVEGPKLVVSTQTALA

Binder | binding result [1] | binding result [2] | binding result [3] | binding result [4] | binding result [5]
抗DLL3 scFv A7 (A7-scFv) (scFv, Fully human scFv from a phage library; also called 抗DLL3阳性克隆A7; 抗DLL3可溶性抗体A7) scFv: QVQLVQSGAEVKKPGASVKVSCKASGYTFTSYYMHWVRQAPGQGLEWMGIINPSGGSTSYAKKFQGRVTMTRDTSTSTVYMELNRVTSDDTAVYYCARGGGVTGFDYWGQGTLVTVSSGSASAPTLGGGGSGGGGSGGGGSDIQMTQSPSSLSASLGDRVTITCRASQTVRTYLNWYQQKPGKAPNLLIYGASSLQSGVPSRFSGSGSGTDFTLTINSLQPEDFGTYYCQQSDTPPLTFGGGTKVEIK | binds | no binding |  |  | 
抗DLL3 scFv G8 (G8-scFv) (scFv, Fully human scFv from a phage library; also called 抗DLL3阳性克隆G8; 抗DLL3可溶性抗体G8) scFv: QVQLQQSGPGLVKPSQTLSLTCAISGDSVSSDSVAWSWIRQSPSRGLEWLGRTYYRSKWYYDYAASVKSRISINPDTSKNQFSLQLNSVTPEDTAVYYCAREPLRYGSSWWDAFDIWGQGTMITVSSGSASAPTLGGGGSGGGGSGGGGSQSALTQPPSVSGSPGQAVTISCTGTSSDVGRYNYVSWYQQHPGKVPKLILFDVSSRPSGVSHRFSGSKSGNTASLTISGLQAEDEADYYCTSYRSGSEVFGGGTKLTVL | binds | no binding |  |  | 
A7 scFv-hFc (Fc fusion, Expressed in 293T cells and tested as culture supernatant; also called A7 scFv-hFc重组蛋白; 抗DLL3单链抗体(scFv-hFc); not shown: human IgG1 Fc segment from the mammalian expression vector PUTAM003) QVQLVQSGAEVKKPGASVKVSCKASGYTFTSYYMHWVRQAPGQGLEWMGIINPSGGSTSYAKKFQGRVTMTRDTSTSTVYMELNRVTSDDTAVYYCARGGGVTGFDYWGQGTLVTVSSGSASAPTLGGGGSGGGGSGGGGSDIQMTQSPSSLSASLGDRVTITCRASQTVRTYLNWYQQKPGKAPNLLIYGASSLQSGVPSRFSGSGSGTDFTLTINSLQPEDFGTYYCQQSDTPPLTFGGGTKVEIK |  |  | no binding | binds | binds
G8 scFv-hFc (Fc fusion, Expressed in 293T cells and tested as culture supernatant; also called G8 scFv-hFc重组蛋白; not shown: human IgG1 Fc segment from the mammalian expression vector PUTAM003) QVQLQQSGPGLVKPSQTLSLTCAISGDSVSSDSVAWSWIRQSPSRGLEWLGRTYYRSKWYYDYAASVKSRISINPDTSKNQFSLQLNSVTPEDTAVYYCAREPLRYGSSWWDAFDIWGQGTMITVSSGSASAPTLGGGGSGGGGSGGGGSQSALTQPPSVSGSPGQAVTISCTGTSSDVGRYNYVSWYQQHPGKVPKLILFDVSSRPSGVSHRFSGSKSGNTASLTISGLQAEDEADYYCTSYRSGSEVFGGGTKLTVL |  |  | no binding | binds | binds

Source: patent CN114181311A (dated 2022)
